{"source": "the nanobody polyreactivity screen of Harvey et al. (2022)"}
{"experiment": "yeast display, Sf9 membrane polyspecificity reagent, FACS + sequencing; frameworks hold sequencing errors", "summary_of_the_method": "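Polyreactivity labels are assigned by the sorting gate from which each nanobody was recovered. The gates were low and high (top ~1%), set on anti-HA fluorescence for expression and streptavidin fluorescence for reagent binding. Before sorting, galactose-induced (36–48 hours) yeast display cells were stained for 1 hour at 4 °C with 10% biotinylated, detergent-solubilized Sf9 membrane reagent.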"}
{"sequence": "QVQLVESGGGLVQAGGSLRLSCAASGRTFLQYAMGWYRQAPRQERDLFATISFSGGSTYYADSVKGRITISRDNAKNTVYLLMNSLKPEDTAVYDCAKSQYRGRVYTGYDYWGQGTQVTVSA", "polyreactivity (PSR sort gate)": "low polyreactivity"}
{"sequence": "QVQLVESGGGLVQAGGSLRLSCAASGRTFLRNAMGWYRQAPGKEREFVAAISTRDGRTYYADSVKGRFTISRDNAKNTVYLQMNSLKPEDTAVYYCNAVNTAGYYYYYAFFWDYDYWGQGTQVTVSS", "polyreactivity (PSR sort gate)": "high polyreactivity"}
{"sequence": "QVQLVESGGGLVQAGGSLRLSCAASGRTFLRYAMGWYRQAPGKERELVAAITSSGGSTFYADSVKGRFTISRDNAKNTVYLQMNSLKPEDSAVYYCAASVGRGYYWGQGTQVTVSS", "polyreactivity (PSR sort gate)": "high polyreactivity"}
{"sequence": "QVQLVESGGGLVQAGGSLRLSCAASGRTFLRYAMGWYRQAPGKERELVAAITYGGRTNYADSVKGRFTISRDNAKNTVYLQMNSLKPEDTAVYYCAADRTYYYGMRVDYWGQGTQVTVSS", "polyreactivity (PSR sort gate)": "high polyreactivity"}
{"sequence": "QVQLVESGGGLVQAGGSLRLSCAASGRTFLRYRMGWYRQAPGKERELVATISRSGGGTTYADSVKGRFTISRYNAKNTVYLQMNSLKPEDTAVYYCNRDQTYPYQYNRWVGQYKYDYWGQGTQVTVSS", "polyreactivity (PSR sort gate)": "low polyreactivity"}
{"sequence": "QVQLVESGGGLVQAGGSLRLSCAASGRTFLRYTMGWYRQAPGKERELVAAITYSGGSTYYADSVKGRFTISRDNAKNTVYLQMNSLKPEDTAVYYCAASYLWGYTEYYYWGQGTQVTVSS", "polyreactivity (PSR sort gate)": "high polyreactivity"}
{"sequence": "QVQLVESGGGLVQAGGSLRLSCAASGRTFLSNAMGWYRQAPGKERELVADITFRGGNTYYADSVKGRFTISRGNAKNTVYLQMNSLKPEDTAVYYCAVLGYGRLSRVRYGYWGQGTQVTVSS", "polyreactivity (PSR sort gate)": "high polyreactivity"}
{"sequence": "QVQLVESGGGLVQAGGSLRLSCAASGRTFLTNAMGWYRPAPGKERELVAAISSGASTNYADSVKGRFTISRDNAKNTVYLQMNSLKPEDTAVYYCAAQLTDYQSKTLSYDYWGQGTQVTVSS", "polyreactivity (PSR sort gate)": "low polyreactivity"}
{"sequence": "QVQLVESGGGLVQAGGSLRLSCAASGRTFLTNAMGWYRQAPGKERELVAAISGGGDDTFYADSVKGRFTISRDNAKNTVYLQMNSLKPEDTAVYYCAADWYTPGWRKEEEYWGQGTQVTVSS", "polyreactivity (PSR sort gate)": "low polyreactivity"}
{"sequence": "QVQLVESGGGLVQAGGSLRLSCAASGRTFLTNTMGWYRQAPGQEREWVATISNGGRTNYADSVKGRFTISRDNAKNTVYLQMNSLKPEDTAVYYCAKDYRAYHPHWYGSTFGWGQGTQVTVSS", "polyreactivity (PSR sort gate)": "high polyreactivity"}
{"sequence": "QVQLVESGGGLVQAGGSLRLSCAASGRTFLTYAMGWYRQAPGKERELVAAISSSGVRTYYADSVKGRFTISRDNAKNTVYLQMNSLKPEDTAVYYCAAVGTGSSLRYDYWGQGSQVTVSS", "polyreactivity (PSR sort gate)": "high polyreactivity"}
{"sequence": "QVQLVESGGGLVQAGGSLRLSCAASGRTFLVYSMGWYIQAPGKERELVAAISFSDGITYYADSVKGRFTISRDNAKNTVYLQMNRLKPEDTAVYYCATEILDYYYGSEYDYWGQGTQVTVTS", "polyreactivity (PSR sort gate)": "high polyreactivity"}
{"sequence": "QVQLVESGGGLVQAGGSLRLSCAASGRTFLVYVMGWYRQAPGKERELVASITYSGGSTYYADSVKGRFTISRDNAKNTVYLQMNSLKPEDTAVYYCAAAQGRQPYRARGLYYYWGQGTQVTVSS", "polyreactivity (PSR sort gate)": "high polyreactivity"}
{"sequence": "QVQLVESGGGLVQAGGSLRLSCAASGRTFLWNALGWYRQAPGKESELVARINLSGGRTYYADSVKGRFTISRDNAKNCVYLQMNSLKPEDTAVYYCAATVVRYRRDSWGQGTQVTVSS", "polyreactivity (PSR sort gate)": "low polyreactivity"}
{"sequence": "QVQLVESGGGLVQAGGSLRLSCAASGRTFLYNALGWYRQAPGKERELVAAISWSGGSTYYADSVKGRFTISRDNAKNTVYLQMNSLKPEDTAVYYCAATGRRSGFFYWGQCTQVTVSS", "polyreactivity (PSR sort gate)": "high polyreactivity"}
{"sequence": "QVQLVESGGGLVQAGGSLRLSCAASGRTFLYYAMGWSRQAPGKEMELVAAIRRGSSTYYADSVKGRFTISRDNAKITVYLQRNCPKPEDTAVYYCAARSFAITKYGSYDYWGQGTQVTVSS", "polyreactivity (PSR sort gate)": "high polyreactivity"}
{"sequence": "QVQLVESGGGLVQAGGSLRLSCAASGRTFLYYAMGWYRQAPGKERELVAAISSGGSTNYADSVKGRFTISRDNAKNTVYLQMNSLIPEDTAVYDCNADYTSRETSDVIYEYDYWGQATQVTVSS", "polyreactivity (PSR sort gate)": "low polyreactivity"}
{"sequence": "QVQLVESGGGLVQAGGSLRLSCAASGRTFLYYAMGWYRQAPGKERELVAGITSGGSTNYADSVKGRFTISRDNAKNTVYLQMNSLKPEETAVYYCAARYFPRIQYGRKGYDYWGQGTQVTVSS", "polyreactivity (PSR sort gate)": "low polyreactivity"}
{"sequence": "QVQLVESGGGLVQAGGSLRLSCAASGRTFLYYAMGWYRQAPGKERELVARITLDGGSTNYADSVKGRFTISRDNAKNTVYLQMNSLKPEDTAVYYCAAQRGGPFPRVVDLYDYWGQGTQVTVSS", "polyreactivity (PSR sort gate)": "low polyreactivity"}
{"sequence": "QVQLVESGGGLVQAGGSLRLSCAASGRTFLYYAMGWYRQAPGKERELVAVISRDGGSTYYADSVKGRFTISRDNAKNTVYLQMNSLKPEDTAVYYCAKRYGWASGYWNSNYGYLYDYWGQGTQVTVSS", "polyreactivity (PSR sort gate)": "high polyreactivity"}
{"sequence": "QVQLVESGGGLVQAGGSLRLSCAASGRTFNHYAMGLYRQAPGKERELVAGITISGGSTYYADSVKGRFTISRDNAKNTVYLQMNSLKPEDTAVYYCNAVYEYYRHSKWTMDYWGQGTQVTVSS", "polyreactivity (PSR sort gate)": "low polyreactivity"}
{"sequence": "QVQLVESGGGLVQAGGSLRLSCAASGRTFNIYDMGGYIPAPGTERELVAAITGRGTGTYYADSVKGRFTISRDNAKNTVYLQMNSLKPEDTAVYFCAAVRRWYYPALSEHDYWGQGTQVTVSS", "polyreactivity (PSR sort gate)": "low polyreactivity"}
{"sequence": "QVQLVESGGGLVQAGGSLRLSCAASGRTFNLYAMGWYRQAPGKERELVAAIRYSDTSTYYADSVKGRFTISRDNAKNTVYLQMNSVKPEDTAVYYCAAYPGYKGGNYGYWGQGTKVTVSS", "polyreactivity (PSR sort gate)": "low polyreactivity"}
{"sequence": "QVQLVESGGGLVQAGGSLRLSCAASGRTFNPYAMGWYRQAPGKERELVAAIRWRGTRTYYADSVKGRFTISRDNAKNTVYLQMNSLKPEDTAVYYCNALLGYYRWRRPVDYSYGSWGQGTQVTVSS", "polyreactivity (PSR sort gate)": "high polyreactivity"}
{"sequence": "QVQLVESGGGLVQAGGSLRLSCAASGRTFNQYAMGWYRQAPGKERELVAAISRRTGRTYYADSVKGRFTISRDNAKNTVYLQMNSLKPEDTAVYYCNTLYFVGPDYGYDYWGQGTQVTVSS", "polyreactivity (PSR sort gate)": "high polyreactivity"}
{"sequence": "QVQLVESGGGLVQAGGSLRLSCAASGRTFNVYAMGWYRQAPGKERELVASISSSDTTNYADSVKGRFTISRDNAKNTVYIQMNSLKPEDTAVYYCAADYTPDLLSKVDYWGQGTQVTVSS", "polyreactivity (PSR sort gate)": "low polyreactivity"}
{"sequence": "QVQLVESGGGLVQAGGSLRLSCAASGRTFNVYAMGWYRQAPGKERELVAVITNGGSTNYADSVKGRFTISRDNAKNTVYLQMNSLKPEDTAVYYCAGDYYASLTREDRDDYWGQGTQVTVSS", "polyreactivity (PSR sort gate)": "low polyreactivity"}
{"sequence": "QVQLVESGGGLVQAGGSLRLSCAASGRTFNYYAMGWYRQAPGKERELVAAISTSGGSTYYADSVKGRFTISRDNAKNTVYLQMNSLKPEDTAVYYCNAVYRVWYAEWSTVGSPHDYWGQGTQVTVSS", "polyreactivity (PSR sort gate)": "low polyreactivity"}
{"sequence": "QVQLVESGGGLVQAGGSLRLSCAASGRTFNYYNMGWYRQAPGKARELVAAISRGGTTYYADSVKGRFTISRDNAKKTVYLQMNSLKPEDTAVYYCAVAYAPRVQTVWSYVSGSTYYSSGQGTQVTVSS", "polyreactivity (PSR sort gate)": "high polyreactivity"}
{"sequence": "QVQLVESGGGLVQAGGSLRLSCAASGRTFNYYNMGWYRQAPGKERELVAAISRGGTTYYADSVKGRFTISRDNAKKTVYLQMNSLKPEDTAVYYCAVAYAPRVQTVWSYVSGSTYYSWGQGTQVTVSS", "polyreactivity (PSR sort gate)": "high polyreactivity"}
{"sequence": "QVQLVESGGGLVQAGGSLRLSCAASGRTFPAYAMGWYRQAPGKERELVAAISYSGGRTRYADSVKGRFTISRDNAMNSVYLQMNSLKPEDTAVYFCNRVIPTQSLRDYYWGQGTQVTVSS", "polyreactivity (PSR sort gate)": "high polyreactivity"}
{"sequence": "QVQLVESGGGLVQAGGSLRLSCAASGRTFPDNAMGWYRQAPGKESEFVAAISSSGSTYYADSVKGRFTISRDNAKNTVYLQMNSLKPEDTAVYYCNRDDWPSYDFTGGDYWGQGTQVTVSS", "polyreactivity (PSR sort gate)": "low polyreactivity"}
{"sequence": "QVQLVESGGGLVQAGGSLRLSCAASGRTFPDYAMGWYRQAPGKERELVARISYSGGSTSYADSVKGRFTISRDNAKNTVYLQMNSLKPEDTAVYYCNRETAYAVGRFEYCGQGTQVTVSS", "polyreactivity (PSR sort gate)": "low polyreactivity"}
{"sequence": "QVQLVESGGGLVQAGGSLRLSCAASGRTFPFNAMGWYRQAPGKERELVAAIRWSGGSTYYADSVKGRFTISRDNAKNTVYLQMNSLKPEDTAVYYCAAVYPKIRSYRYGYWGQGTQVTVSS", "polyreactivity (PSR sort gate)": "high polyreactivity"}
{"sequence": "QVQLVESGGGLVQAGGSLRLSCAASGRTFPGNAMGWYRQAPGKERELVAAINSRGSTYYADSVKGRFTISRDNAKHTVYLKMNSLKPEDTAVYYSAAYFGHYWRYYYWGQGTQVNVSS", "polyreactivity (PSR sort gate)": "high polyreactivity"}
{"sequence": "QVQLVESGGGLVQAGGSLRLSCAASGRTFPGNAMGWYRQAPGKERELVAAISWSGTRTYYADSVKGRFTISRDNAKHTVYLQMNSLKPEDTAVYYCNVVVKGAWDYYPYDYWGQGTQVTVSS", "polyreactivity (PSR sort gate)": "high polyreactivity"}
{"sequence": "QVQLVESGGGLVQAGGSLRLSCAASGRTFPGNDMGWYRQAPGKERELDAAISSDDSTYYADSVKWRFTMSRDNAKNTVYLKMNSLKPEDTAVYYCNAEYYEGYIGVPGSYWPYEYWGQGTQVTVSS", "polyreactivity (PSR sort gate)": "low polyreactivity"}
{"sequence": "QVQLVESGGGLVQAGGSLRLSCAASGRTFPGYAMGWYRQAAGTERELVAGISYRGGSTYYADSVKGRFTISRDNAKNTVYLQMNSLKPEDTAVYYCARDYSRHKGDYWGQGTQVTVSS", "polyreactivity (PSR sort gate)": "low polyreactivity"}
{"sequence": "QVQLVESGGGLVQAGGSLRLSCAASGRTFPGYAMGWYRQAPGKERELVAGISYRGGSTYYADSVKGRFTISRDIAKNTVYLQMNSLKPEDTAVYYCAREYSRHKGDYWGQGTQVTVSS", "polyreactivity (PSR sort gate)": "low polyreactivity"}
{"sequence": "QVQLVESGGGLVQAGGSLRLSCAASGRTFPINAMGWYRQAPGKERELVASIRWTDGTTYYADSVKGRFTISRDSAKNTVYLQMNSLKPEDTAVFYCAADAEGSASKYDYWGQGTQVTVSS", "polyreactivity (PSR sort gate)": "low polyreactivity"}
{"sequence": "QVQLVESGGGLVQAGGSLRLSCAASGRTFPIYAMGWYRQAPGKERELVATITWNDGNTYYADSVKGRFTISRDNAKNTVYLQMNSLKPEDTAVYYCAAKGGWPWHYHYQKNSEYDYWGQGTQVTVSS", "polyreactivity (PSR sort gate)": "low polyreactivity"}
{"sequence": "QVQLVESGGGLVQAGGSLRLSCAASGRTFPLNAMGWYRQAPGKERELVASITKSTGNTRYADSVKGRFTISRDNAKNTVYLQMNSLKPEDTAVYYCAARSYRDRYYWGQGTQVTVSS", "polyreactivity (PSR sort gate)": "high polyreactivity"}
{"sequence": "QVQLVESGGGLVQAGGSLRLSCAASGRTFPNNAMGWYRQAPGKERELVAVITWSGGSTYYADSVKGRFTISRDNAKNTVYLQMNSLKPEDTAVYYCATDYTGKWKDHYYYWGQGTQVTVSS", "polyreactivity (PSR sort gate)": "low polyreactivity"}
